Patent US20100048604A1, “Ligands for Aldoketoreductases” (priority 2004, published 2010)

Key:
[1] = system: AKR1C1-AKR1C4; test: Substrate tolerance and selectivity across the four human AKR1C isozymes; type: biochemical; details: AKR1C1-AKR1C4, purified enzymes, NADPH
Description: (§1) AKR1C2 and AKR1C3 Selective Probes: Probes (5a-5i) were examined as substrates for the four purified human HSD isozymes (AKR1C1-AKR1C4) under standard assay conditions [catalytic quantities of enzyme, an excess of cofactor (NADPH)]. The initial reaction rates were used to derive standard kinetic parameters (kcat and Km, Materials and Methods).
(§2) Substrate tolerance of AKR1Cs: Isozyme Activity with 5a-5i: Activity of the second generation of fluorogenic substrates with the AKR1C isozymes was determined as follows. To a STARNA semi-micro fluorimeter cell (with 4 polished windows) was added 100 μL of 1 M potassium phosphate buffer (pH 6), 840 μL doubly deionized water, and 20 μL of 12.5 mM NADPH. After mixing the aqueous components thoroughly, 20 μL of acetonitrile was added as a cosolvent and mixed well. 20 μL of 2.5 mM second generation fluorogenic ketone in acetonitrile (5a-5i) was then added and mixed. 4 μL of undiluted AKR1C (provided generously by the Penning lab at concentrations of 2.5 mg/mL) were then added to the cuvette for a total of 10 μg purified enzyme in the 1 mL assay volume. Fluorescence arising from the respective alcohol reduction product was then monitored over the course of 5-10 minutes.
Binding constant and catalytic rates (Km and kcat) of the second generation of fluorogenic substrates was determined as follows. To a STARNA semi-micro fluorometer cell (with 4 polished windows) was added 100 μL of 1 M potassium phosphate buffer (pH 6), 840 μL doubly deionized water, and 20 AL of 12.5 mM NADPH. After mixing the aqueous components thoroughly, 20 μL of acetonitrile was added as a cosolvent and mixed well. […] Fluorescence arising from the respective alcohol reduction product was then monitored over the course of 3 minutes (Excitation and emission band pass slits both at 4 nm, lamp 700 V, λexc 410 nm, λem 510). The rate of product formation, expressed in units of nanomoles per minute, were calculated according to previously published procedures (Wierzchowski, J.; Dafeldecker, W. P.; Holmquist, B.; Vallee, B. L. Anal. Biochem. 1989, 178, 57-62): […]

[2] = target: T1, Thermoanaerobium brockii alcohol dehydrogenase (TBAD) (Thermoanaerobacter brockii, UniProt P14941); test: Enzymatic screening of probes 1-7 against a panel of oxidoreductases; type: biochemical; details: 12 hour incubation, 30-50 μM substrate, pH 7, 250 μM NAD(P)H
T1 construct: purchased Sigma (St. Louis, Mo.) Lot Number 033K4093 (catalogue number not given)
T1 sequence (P14941 1-352): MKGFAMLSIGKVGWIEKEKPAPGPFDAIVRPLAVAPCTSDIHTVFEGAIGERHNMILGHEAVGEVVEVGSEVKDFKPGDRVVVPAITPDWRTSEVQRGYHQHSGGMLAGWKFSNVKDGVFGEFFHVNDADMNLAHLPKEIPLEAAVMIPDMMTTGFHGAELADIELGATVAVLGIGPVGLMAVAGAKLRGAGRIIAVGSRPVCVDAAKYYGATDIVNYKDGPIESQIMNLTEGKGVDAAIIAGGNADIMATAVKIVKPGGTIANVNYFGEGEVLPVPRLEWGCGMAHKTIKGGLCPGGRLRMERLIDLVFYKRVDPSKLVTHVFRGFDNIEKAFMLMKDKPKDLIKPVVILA
Experimental: (§3) FIG. 4. Screening of probes 1-7 against a panel of oxidoreductases Percentage fluorescence increase after 12 hour incubation of 30-50 μM substrate, 100 mM phosphate buffer (pH 7), 250 μM NAD(P)H, and 100 nM enzyme. Substrates 1, 2, 3, and 4 monitored at λexc=340 nm, λem=440 nm. Substrates 5, 6, and 7 monitored at λexc=440 nm, λem=510 nm. 3HSD, 3α-hydroxysteroid dehydrogenase (PT, Pseudomonas testosteroni), HLAD, horse liver alcohol dehydrogenase, TBAD, Thermoanaerobium brockii alcohol dehydrogenase, BS 12HSD, Bacillus sp. 12α-hydroxysteroid dehydrogenase, ABAD, amyloid-β binding alcohol dehydrogenase (human), GDH, glycerol dehydrogenase, YADH, yeast alcohol dehydrogenase, LDH, lactate dehydrogenase.
(§4) Probes 1-7 (see FIG. 3) were subsequently tested against a collection of dehydrogenases in the presence of NAD(P)H; the extent of reduction was assessed by the measurement of fluorescence intensity at the emission maximum of each probe (FIG. 4). This assay included enzymes from two major oxidoreductase superfamilies, the short chain alcohol dehydrogenases (SDR) and the aldo-keto reductases (AKR), ranging from bacterial to mammalian and human enzymes.
(§5) Horse Liver alcohol dehydrogenase (Lot Number 51K7520), Thermoanaerobium brockii NADP^+ dependent alcohol dehydrogenase (Lot Number 033K4093), Pseudomonas testosteroni 3α-hydroxysteroid dehydrogenase (Lot Number 053K8624), and Bacillus sphaericus 12α-hydroxysteroid dehydrogenase (Lot Number 70K16621) were purchased from Sigma (St. Louis, Mo.). Yeast alcohol dehydrogenase (Lot Number 93122920), glycerol dehydrogenase (Lot Number 92110122), (D)-lactate dehydrogenase (Lot Number 92419236), (L)-lactate dehydrogenase (Lot Number 92801821), NAD^+, NADP^+, NADH, and NADPH were purchased from Roche. Enzyme activity was confirmed by compliance to supplier's quality control assays prior to usage. Rat and human 3α-hydroxysteroid dehydrogenases were provided by Professor Trevor Penning (University of Pennsylvania School of Medicine) and human amyloid-β peptide binding alcohol dehydrogenase was supplied by Professor Shi Du Yan (Columbia University School for Physicians and Surgeons).
(§6) Enzymatic assays were performed in triplicate on selected fluorogenic substrates according to the following protocol. To each well of a FALCON 96-well black flat bottom plate was added (1) 40 μL of 500 mM potassium phosphate buffer pH 7.0, (2) 113 μL of double deionized water, (3) 25 μL of 2 mM NADH (except for Pseudomonas testosteroni 3α-hydroxysteroid dehydrogenase, rat 3α-hydroxysteroid dehydrogenase, and Thermoanaerobium brockii NADP^+ dependent alcohol dehydrogenase, in which cases 2 mM of NADPH was used), (4) 2 μL of a 3-5 mM solution of substrate in DMSO, and (5) 20 μL of a 40-50 μg/mL solution of enzyme. Reaction volumes were mixed thoroughly after addition of cofactor, substrate, and enzyme and allowed to react 12 hours at 25° C. Scanning of the 96-well plate was performed by the MicroMax 384 connected to a Jobin Yvon Fluorolog through F-3000 fiber optic cables.
(§7) Initial Screening with Fluorogenic Substrates: Screening of the first fluorogenic substrates for enzymatic activity has been described above. In short, 200 μL enzymatic assay volumes containing 100 mM potassium phosphate buffer (pH 7), 250 μM NAD(P)H cofactor, and 30-50 μM of ketones (1-7) were incubated for 12 hours on a black FALCON 96-well plate. Formation of the alcohol reduction product was determined by reading the fluorescence arising from excitation at the corresponding alcohol at either 340 nm (27-30) or 440 nm (31-33).

[3] = target: T2, horse liver alcohol dehydrogenase (HLAD) (Equus caballus, UniProt P00327); test: as above; type: biochemical; details: 12 hour incubation, 30-50 μM substrate, pH 7, 250 μM NAD(P)H
T2 construct: purchased Sigma (St. Louis, Mo.) Lot Number 51K7520 (catalogue number not given)
T2 sequence (P00327 2-375 limits assumed): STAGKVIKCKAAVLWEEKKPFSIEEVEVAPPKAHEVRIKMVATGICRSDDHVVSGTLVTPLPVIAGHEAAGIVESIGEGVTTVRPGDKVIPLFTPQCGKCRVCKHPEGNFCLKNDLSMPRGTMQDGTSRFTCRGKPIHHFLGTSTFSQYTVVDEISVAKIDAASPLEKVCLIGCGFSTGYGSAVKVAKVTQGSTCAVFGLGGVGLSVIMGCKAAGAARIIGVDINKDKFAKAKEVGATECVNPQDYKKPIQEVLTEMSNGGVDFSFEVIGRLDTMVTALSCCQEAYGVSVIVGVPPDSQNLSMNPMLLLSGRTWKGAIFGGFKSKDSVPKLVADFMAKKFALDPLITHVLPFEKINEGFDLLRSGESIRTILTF
Experimental: as §3, §4, §5, §6, §7

[4] = substrate: CC(=O)c1cc(=O)oc2c3c(ccc12)NCCC3; test: Steady state kinetic parameters of fluorogenic substrates with purified AKR1C isozymes; type: biochemical, human; details: other: isozyme 1C1, potassium phosphate buffer pH 6, NADPH, fluorimetric
Description: as §1, §2
(§8) Binding constant and catalytic rates (Km and kcat) of the second generation of fluorogenic substrates was determined as follows. To a STARNA semi-micro fluorometer cell (with 4 polished windows) was added 100 μL of 1 M potassium phosphate buffer (pH 6), 840 μL doubly deionized water, and 20 AL of 12.5 mM NADPH. After mixing the aqueous components thoroughly, 20 μL of acetonitrile was added as a cosolvent and mixed well. 20 μL of the second generation fluorogenic ketone (5a-5i) was then added and mixed to achieve assay concentrations of 5Km to Km/5. To initiate the reduction, 2 or 4 μL of diluted AKR1C (1:2 to 1:100, depending on the kinetics of a particular isozyme's reduction of a substrate) was then added to the cuvette. Fluorescence arising from the respective alcohol reduction product was then monitored over the course of 3 minutes (Excitation and emission band pass slits both at 4 nm, lamp 700 V, λexc 410 nm, λem 510). The rate of product formation, expressed in units of nanomoles per minute, were calculated according to previously published procedures (Wierzchowski, J.; Dafeldecker, W. P.; Holmquist, B.; Vallee, B. L. Anal. Biochem. 1989, 178, 57-62):
(§9) initial rate=[nst×(Ft−F0)/(Fst)]/t (1)
(§10) where Ft and F0 represent the fluorescence at times t and 0 minutes, nst is the nanomoles of product in a known concentration of product, and Fst is the fluorescence resulting from nst of product. Kinetic parameters were approximated by GraFit (Erithacus Software, Surrey, UK) nonlinear regression analysis program to fit the untransformed data to a hyperbolic function as originally described (Wierzchowski, J.; Dafeldecker, W. P.; Holmquist, B.; Vallee, B. L. Anal. Biochem. 1989, 178, 57-62). Reported enzymatic kinetic parameters are the average of three independent determinations from three different preparations of substrate and enzyme.

[5] = substrate: CC(=O)c1cc(=O)oc2c3c4c(cc12)CCCN4CCC3; test: as above; type: biochemical, human; details: other: isozyme 1C1, potassium phosphate buffer pH 6, NADPH, fluorimetric
Description: as §1, §2, §8, §9, §10

[6] = substrate: CC(=O)c1cc(=O)oc2cc(N(C)C)ccc12; test: as above; type: biochemical, human; details: other: isozyme 1C1, potassium phosphate buffer pH 6, NADPH, fluorimetric
Description: as §1, §2, §8, §9, §10

[7] = substrate: O=C(c1ccccc1)c1cc(=O)oc2c3c4c(cc12)CCCN4CCC3; test: as above; type: biochemical, human; details: other: isozyme 1C1, potassium phosphate buffer pH 6, NADPH, fluorimetric
Description: as §1, §2, §8, §9, §10

[8] = substrate: O=C1CCc2c1c1cc3c4c(c1oc2=O)CCCN4CCC3; test: as above; type: biochemical, human; details: other: isozyme 1C1, potassium phosphate buffer pH 6, NADPH, fluorimetric
Description: as §1, §2, §8, §9, §10

Molecule: CC(=O)c1c(Br)c(=O)oc2c3c4c(cc12)CCCN4CCC3 [5e, 8-Acetyl-9-bromo-2,3,5,6-tetrahydro-1H,4H-11-oxa-3a-aza-benzo[de]anthracen-10-one]
- acceptance as substrate by the four human isozymes [1]: not accepted as substrates by any of the tested 3a-HSD enzymes

Molecule: CC(=O)c1c(-c2ccccc2)c(=O)oc2c3c4c(cc12)CCCN4CCC3 [5f, 8-Acetyl-9-phenyl-2,3,5,6-tetrahydro-1H,4H-11-oxa-3a-aza-benzo[de]anthracen-10-one]
- acceptance as substrate by the four human isozymes [1]: not accepted as substrates by any of the tested 3a-HSD enzymes

Molecule: COc1ccc2cc(C#CC(C)=O)c(=O)oc2c1 [compound 4, 7-Methoxy-3-(3-oxo-but-1-ynyl)-coumarin]
- reduction of probe (fluorescence increase) [2]: catalyzed reduction
- reduction of probe (fluorescence increase) [3]: catalyzed reduction

Molecule: CC(=O)C#Cc1cc2cc3c4c(c2oc1=O)CCCN4CCC3 [compound 7, 9-(3-Oxo-but-1-ynyl)-2,3,5,6-tetrahydro-1H,4H-11-oxa-3a-aza-benzo[de]anthracen-10-one]
- reduction of probe (fluorescence increase) [2]: catalyzed reduction
- reduction of probe (fluorescence increase) [3]: catalyzed reduction

B1: AKR1C1 (Homo sapiens) (protein)
chain: MDSKYQCVKLNDGHFMPVLGFGTYAPAEVPKSKALEATKLAIEAGFRHIDSAHLYNNEEQVGLAIRSKIADGSVKREDIFYTSKLWCNSHRPELVRPALERSLKNLQLDYVDLYLIHFPVSVKPGEEVIPKDENGKILFDTVDLCATWEAVEKCKDAGLAKSIGVSNFNRRQLEMILNKPGLKYKPVCNQVECHPYFNQRKLLDFCKSKDIVLVAYSALGSHREEPWVDPNSPVLLEDPVLCALAKKHKRTPALIALRYQLQRGVVVLAKSYNEQRIRQNVQVFEFQLTSEEMKAIDGLNRNVRYLTLDIFAGPPNYPFSDEY
notes: gift of the Penning lab (University of Pennsylvania School of Medicine)
- Km [4]: 35.3 ± 2.9 4.8 ± 0.3 8.3 ± 0.9 40.2 ± 3.4 μM
- kcat [4]: 0.11 s⁻¹
- kcat/Km [4]: 0.19 6.0 0.84 0.036 min^−1 μM^−1
- Km [5]: 24.4 ± 2.3 7.3 ± 0.4 1.1 ± 0.1 20.6 ± 1.9 μM
- kcat [5]: 0.0183 s⁻¹
- kcat/Km [5]: 0.046 2.1 6.9 0.020 min^−1 μM^−1
- Km [6]: 21.0 ± 1.3 7.2 ± 0.6 4.3 ± 0.3 14.8 ± 0.9 μM
- kcat [6]: 0.0333 s⁻¹
- kcat/Km [6]: 0.10 3.0 2.1 0.14 min^−1 μM^−1
- Km [7]: 5.5 ± 0.7 3.0 ± 0.2 0.051 ± 0.005 6.2 ± 0.7 μM
- kcat [7]: 0.025 s⁻¹
- kcat/Km [7]: 0.27 7.8 106 0.10 min^−1 μM^−1
- Km [8]: 4.0 ± 0.6 4.5 ± 0.6 0.13 μM
- kcat [8]: 1.6 0.40 7.2 no activity
- kcat/Km [8]: 0.39 0.08 56 min^−1 μM^−1
